B1: mutated form of R11.1.6: R11.1.6 with codons in the regions that contact the K-RAS mutant scrambled to prevent binding (SEQ ID NO: 6) (protein)
chain: ATVKFTHQGEEKQVDISKIKFVWRKGYVRIWGYDEDGGWGAGKYVSEKDAPKELLQMLKKR
B2: M11.1.2: a scaffolding protein that binds mouse serum albumin (SEQ ID NO: 7) (protein)
chain: ATVKYTYRGEEKRVDISKIKWVNRWGQHLAFKYDKGGGAAGYGWVSEKDAPKELLQMLEKR
B3: E11.4.1: scaffold protein which binds human EGFR (SEQ ID NO: 8) (protein)
chain: ATVKFTYQGEEKQVDISKIMYVIRGGQRIAFGYDEGDGAWGDGIVSEKDAPKELLQMLEKQ

What was measured:
[1] = test system: Panc-1 (K-Ras G12D mutant); test: Growth and viability of pancreatic cancer cells cultured with R11.1.6 constructs (cell count, Trypan blue); type: cell-based, human; conditions: Panc-1, 20,000 cells/well, counted after 5 days of culture
Procedure: We next evaluated growth as well as viability of two pancreatic cancer cell lines driven by either G12D (Panc-1) or G12C (MiaPaca-2) mutant K-Ras in vitro. We plated 20,000 cells/well in Dulbecco's modified Eagles media (DMEM) with 10% fetal bovine serum (FBS) in a flat bottom 96 well plate and counted cells after 5 days of culture. Viability of cells were calculated based on Trypan blue dye exclusion method, where dead cells were blue due to uptake of the viability dye and live cells were not stained. Viability was measured by using Countess II FL cell viability and cell counter instrument by Invitrogen (ThermoFisher USA).
Further evaluation of growth inhibition was performed with control Sulfolobus solfataricus-derived proteins of similar molecular weight. […] We started with 200,000 cells in a 96 well V-bottom plate and used BD phosflow buffer set III (BD biosciences, catalog number 558050) to stabilize and optimize the phosphor moiety. Next, we stained the cells with anti-phospho-Akt (ser473, Clone D9E) PE conjugated (Cell Signaling Technologies, Catalog number 5315S) at a concentration of 0.125 ug/100 ul or anti-phosho-ERK1/2, PE conjugated (ThermoFisher USA catalog number 12-9109-42) at a concentration of 0.125 ug/100 ul. Cells were washed in FACS staining buffer and run in a LSR Fortessa II flow cytometer (BD Biosciences, USA). Acquisition was done was using FACS DIVA software (BD Biosciences) and analysis was performed in FlowJo software (Tree Star, OR, USA). This was a significant finding as both Akt and ERK1/2 are important downstream molecules of K-Ras signaling, like that described for small molecule inhibitors of K-Ras (PMID: 12509763) (FIG. 1g).

[2] = test system: Panc-1 (G12D mutant K-Ras); test: Localization / surface binding of His-tagged constructs by anti-His flow cytometry and confocal microscopy; type: cell-based, human
Excerpt: However, we considered that the small 7 kDa size of this scaffolding protein and disorganized cell membrane of malignantly transformed cells may allow for cytoplasmic penetration even in the absence of a cell penetrating peptide. To evaluate this possibility, we explored the cellular location of the R11.1.6 constructs by flow cytometry and confocal microscopy. For flow cytometry experiments, cells were stained first with Live/Dead far red fixable staining kit (ThermoFisher USA, catalog number L10120). Specifically, 0.2-0.4×10^6 cells were plated in a V bottom plate and 100 ul of the dye (1:1000 dilution of stock concentration following manufacturer's protocol) was added to each well and cells incubated in room temperature for 15 mins. Next cells were washed with PBS containing 2.5% FBS and 0.1% sodium azide (FACS buffer). Cells were then surface stained by adding 100 ul/well of anti-His PE labelled antibody (mouse anti-human antibody, BioLegend, CA, USA Catalog #362603) at a concentration of 10 μg/ml. Cells were washed twice with FACS buffer and fixed by cytofix buffer (BD biosciences catalog number 554655). […] Cells were acquired using LSR Fortessa II flow cytometer using FACS DIVA software (BD Biosciences USA) and analyzed using FlowJo (Tree Star USA). […]

Row | Molecule | growth and viability [1] | binding to the tumor cell surface (anti-His staining) [2]
1 | B1 | none of these control constructs could inhibit tumor growth | –
2 | B2 | none of these control constructs could inhibit tumor growth | –
3 | B3 | none of these control constructs could inhibit tumor growth | bind to the surface of tumor cells

— patent US20260158070A1, “COMPOSITIONS AND METHODS FOR THE TREATMENT AND DIAGNOSIS OF CANCERS ASSOCIATED WITH SURFACE K-RAS” (UNIVERSITY OF MARYLAND, BALTIMORE, priority 2023, published 2026)
